# According to US20090324609A1:
# Target: PD-1 receptor on T cells of anti-CD3-activated Balb/c splenocytes (mouse) (UniProt Q02242)
# Assay: cell-based or functional assay
# UniProt Q02242, sequence (Q02242 25-288): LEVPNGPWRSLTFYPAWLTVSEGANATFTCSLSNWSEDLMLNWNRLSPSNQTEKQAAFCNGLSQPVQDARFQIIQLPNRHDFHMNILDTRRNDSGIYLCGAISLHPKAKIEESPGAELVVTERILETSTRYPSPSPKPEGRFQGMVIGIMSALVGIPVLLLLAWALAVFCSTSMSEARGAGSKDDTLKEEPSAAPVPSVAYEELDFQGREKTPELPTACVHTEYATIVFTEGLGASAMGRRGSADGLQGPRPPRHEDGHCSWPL
substance,measurement,value
PD-L1 (Programmed death ligand 1) on the surface of wildtype C57BL/6 mouse mesenchymal stem cells (from UniProt Q9EP73 19-290),"Fold suppression of T cell proliferation by wildtype B6 MSCs (CFSE, anti-CD3-activated Balb/c splenocytes)",> 5 fold
same,"Fold suppression of T cell proliferation when PD-L1 is absent from the MSCs (B6 PD-L1-/- MSCs; CFSE, anti-CD3-activated Balb/c splenocytes)",< 2 fold
same,"T cell proliferation (CFSE-labelled Balb/c splenocytes activated with anti-CD3, flow cytometry); percent proliferating with wildtype B6 MSCs, against 87% without MSCs",16%
